Experimental data: the RNAGym collection of RNA variant scans (doi:10.7554/elife.80360)

B1: CPEB3 Ribozyme (parent)
chain: GGGGGCCACAGCAGAAGCGUUCACGUCGCGGCCCCUGUCAGAUUCUGGUGAAUCUGCGAAUUCUGCUGU

Variants of: B1
Assay: self-cleavage, relative activity (ratio to wild type); higher = more cleavage; co-transcriptional

| Variant | self-cleavage |
| --- | --- |
| GGGGGCCACAGCAGAGGCGUUCUCGUCGCGGCCCCUGUCAGAUUCUGGUGAAUCUGCGAAUUCUGCUGU [A16G A23U] | 0.955 |
| GGGGGCCACAGCAGAGGCGUUCGCGUCGCGGCCCCUGUCAGAUUCUGGUGAAUCUGCGAAUUCUGCUGU [A16G A23G] | 0.921 |
| GGGGGCCACAGCAGAGGCGUUCCCGUCGCGGCCCCUGUCAGAUUCUGGUGAAUCUGCGAAUUCUGCUGU [A16G A23C] | 0.928 |
| GGGGGCCACAGCAGAGGCGUUCACAUCGCGGCCCCUGUCAGAUUCUGGUGAAUCUGCGAAUUCUGCUGU [A16G G25A] | 0.283 |
| GGGGGCCACAGCAGAGGCGUUCACUUCGCGGCCCCUGUCAGAUUCUGGUGAAUCUGCGAAUUCUGCUGU [A16G G25U] | 0.174 |
| GGGGGCCACAGCAGAGGCGUUCACCUCGCGGCCCCUGUCAGAUUCUGGUGAAUCUGCGAAUUCUGCUGU [A16G G25C] | 0.257 |
| GGGGGCCACAGCAGAGGCGUUCACGUCGCGGCCCCUGUCAGAUUCUGGUGAAUCUACGAAUUCUGCUGU [A16G G56A] | 0.703 |
| GGGGGCCACAGCAGAGGCGUUCACGUCGCGGCCCCUGUCAGAUUCUGGUGAAUCUCCGAAUUCUGCUGU [A16G G56C] | 0.458 |
| GGGGGCCACAGCAGAGGCGUUCACGUCGCGGCCCCUGUCAGCUUCUGGUGAAUCUGCGAAUUCUGCUGU [A16G A42C] | 0.608 |
| GGGGGCCACAGCAGAGGCGUUCACGUCCCGGCCCCUGUCAGAUUCUGGUGAAUCUGCGAAUUCUGCUGU [A16G G28C] | 0.0652 |
| GGGGGCCACAGCAGAGGCGUUCACGUCGCGGCCCCUGUCAGAUUCUGGUGAAUCUGCCAAUUCUGCUGU [A16G G58C] | 0.95 |
| GGGGGCCACAGCAGAGGCGUUCACGUCGCGGCCCCUGUCAGAUUCUGGUGAAUCUGUGAAUUCUGCUGU [A16G C57U] | 0.317 |
| GGGGGCCACAGCAGAGGCGUUCACGUCGCGGCCCCUGUCAGAUUCUGGUGAAUCUGGGAAUUCUGCUGU [A16G C57G] | 0.324 |
| GGGGGCCACAGCAGAGGCGUUCACGUCGCGGCCCCUGUCAGAUUCUGGUGAAUCUGAGAAUUCUGCUGU [A16G C57A] | 0.335 |
| GGGGGCCACAGCAGAGGCGUUCACGUCGCGGCCCCUGUCAGAUUCUGGUGAAUCUGCGCAUUCUGCUGU [A16G A59C] | 0.417 |
| GGGGGCCACAGCAGAGGCGUUCACGUCGCGGCCCCUGUCAGAUUCUGGUGAAUCUGCGGAUUCUGCUGU [A16G A59G] | 0.944 |
| GGGGGCCACAGCAGAGGCGUUCACGUCGCGGCCCCUGUGAGAUUCUGGUGAAUCUGCGAAUUCUGCUGU [A16G C39G] | 0.745 |
| GGGGGCCACAGCAGAGGCGUUCACGUCGCGGCCCCUGUUAGAUUCUGGUGAAUCUGCGAAUUCUGCUGU [A16G C39U] | 0.808 |
| GGGGGCCACAGCAGAGGCGUUCACGUCGCGGCCCCUGUAAGAUUCUGGUGAAUCUGCGAAUUCUGCUGU [A16G C39A] | 0.591 |
| GGGGGCCACAGCAGAGGCGUUCACGUCGCGGCCCCUGUCAGAUUCUGGUGAAUCUGCGACUUCUGCUGU [A16G A60C] | 0.58 |

| Variant | self-cleavage |
| --- | --- |
| GGGGGCCACAGCAGAGGCGUUCACGUCGCGGCCCCUGUCAGAUUCUGGUGAAUCUGCGAUUUCUGCUGU [A16G A60U] | 0.207 |
| GGGGGCCACAGCAGAGGCGUUCACGUCGCGGCCCCUGUCAGAUUCUGGUGAAUCUGCGAAUUGUGCUGU [A16G C63G] | 0.527 |
| GGGGGCCACAGCAGAGGCGUUCACGUCGCGGCCCCUGUCAGAUUCUGGUGAAUCUGCGAAUUAUGCUGU [A16G C63A] | 0.648 |
| GGGGGCCACAGCAGACGCGUUCACGUCGCGGCCCCUGUCAGAUUCUGGUGAAUCUGCGAAUUCGGCUGU [A16C U64G] | 0.119 |
| GGGGGCCACAGCAGAGGAGUUCACGUCGCGGCCCCUGUCAGAUUCUGGUGAAUCUGCGAAUUCUGCUGU [A16G C18A] | 0.0836 |
| GGGGGCCACAGCAGAGGUGUUCACGUCGCGGCCCCUGUCAGAUUCUGGUGAAUCUGCGAAUUCUGCUGU [A16G C18U] | 0.569 |
| GGGGGCCACAGCAGAGGCGUUCACGUCGCGGCCCCUGUCAGAUUCUGGUGAAUUUGCGAAUUCUGCUGU [A16G C54U] | 0.928 |
| GGGGGCCACAGCAGACGCGUUCACGUCGCGGCCCCUGUCAGAUUCUGGUGAAUCUGCGAAGUCUGCUGU [A16C U61G] | 0.848 |
| GGGGGCCACAGCAGAGGCGUUCACGUCGCGGCCCCUGUCAGAUUCUGGUGCAUCUGCGAAUUCUGCUGU [A16G A51C] | 0.819 |
| GGGGGCCACAGCAGAGGCGUUCACGUCGCGGCCCCUGUCAGAUUCUGGUGGAUCUGCGAAUUCUGCUGU [A16G A51G] | 0.894 |
| GGGGGCCACAGCAGACGCGUUCACGUCGCGGCCCCUGUCAGAUUCUGGUGAAUCAGCGAAUUCUGCUGU [A16C U55A] | 0.153 |
| GGGGGCCACAGCAGACGCGUUCACGUCGCGGCCCCUGUCAGAUUCUGGUGAAUCGGCGAAUUCUGCUGU [A16C U55G] | 0.204 |
| GGGGGCCACAGCAGAGGCGUUGACGUCGCGGCCCCUGUCAGAUUCUGGUGAAUCUGCGAAUUCUGCUGU [A16G C22G] | 0.0656 |
| GGGGGCCACAGCAGAGGCGUUCACGUCGCGGCCCCUGUCAGAUUCUGGUUAAUCUGCGAAUUCUGCUGU [A16G G50U] | 0.994 |
| GGGGGCCACAGCAGAGGCGUUCACGUCGCGGCCCCUGUCAGAUUCUGGUGAAUCUGCGAAUUCUGCUGU [A16G] | 0.946 |
| GGGGGCCACAGCAGAGGCGUUCACGUCGCGGCCCCUGUCCGAUUCUGGUGAAUCUGCGAAUUCUGCUGU [A16G A40C] | 0.243 |
| GGGGGCCACAGCAGAGGCGUUCACGUCGCGGCCCCUGUCUGAUUCUGGUGAAUCUGCGAAUUCUGCUGU [A16G A40U] | 0.409 |
| GGGGGCCACAGCAGAGGCGUUCACGUCGCGGCCCUUGUCAGAUUCUGGUGAAUCUGCGAAUUCUGCUGU [A16G C35U] | 0.893 |
| GGGGGCCACAGCAGACGCGUUCACGUCGCGGCCCCUGUCAGAUUCUGGUGAACCUGCGAAUUCUGCUGU [A16C U53C] | 0.152 |
